*1 amine or outer side, *2 acyl side, *3 side chain or, on linkers, in order; H or OH if unused. Bridges are numbered along the chain shown (N, C = ends). Where no end group is shown, it is not given here. Side-chain parts run from the residue outwards. [ ]: non-standard residue; d: D form. The star is where a group is joined. C20 diacid = O=C(O)CCCCCCCCCCCCCCCCCCC(=O)*; C18 diacid = O=C(O)CCCCCCCCCCCCCCCCC(=O)*; γGlu = O=C(O)[C@H](CCC(=O)[*:2])N[*:1]; Hyp = O=C(O)[C@@H]1C[C@@H](O)CN1; AEEA = NCCOCCOCC(=O)O
T1: human amylin receptor (AMY3) on CHO-K1/Ga15/AMY3 cells (human, UniProt P30988 25-474; O60896 24-148)
T1 sequence (looked up) 1: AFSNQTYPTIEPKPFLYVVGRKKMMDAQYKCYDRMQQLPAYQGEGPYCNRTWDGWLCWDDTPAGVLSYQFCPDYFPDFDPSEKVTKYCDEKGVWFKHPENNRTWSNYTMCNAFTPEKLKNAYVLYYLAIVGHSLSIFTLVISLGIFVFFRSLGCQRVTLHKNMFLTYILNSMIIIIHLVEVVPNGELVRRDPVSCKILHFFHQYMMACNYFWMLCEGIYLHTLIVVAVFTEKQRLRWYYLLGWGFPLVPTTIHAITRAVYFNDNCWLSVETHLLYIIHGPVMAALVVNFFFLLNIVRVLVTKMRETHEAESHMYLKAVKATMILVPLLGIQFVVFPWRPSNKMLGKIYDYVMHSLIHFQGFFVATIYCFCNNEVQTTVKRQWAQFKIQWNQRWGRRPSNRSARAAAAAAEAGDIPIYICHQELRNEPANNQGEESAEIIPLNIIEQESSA
T1 sequence (looked up) 2: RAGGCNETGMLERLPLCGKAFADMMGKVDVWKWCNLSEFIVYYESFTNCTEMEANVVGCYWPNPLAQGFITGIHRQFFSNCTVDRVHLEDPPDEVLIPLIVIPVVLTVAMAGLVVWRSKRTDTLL


Biological target: T1, human amylin receptor (AMY3) on …
Experiment: cell-based or functional assay

Row | Binder | EC50, CRE-luciferase assay
1 | RCNTATCATQRLADFLRHSSNK([AEEA-γGlu-C18 diacid])LGPILPPTNVGSNT[Hyp]-NH2 (disulfide 2-7 (inferred)) [PD113] | 0.017 nM
2 | {C20 diacid-γGlu-AEEA}-KCNTATCATQRLADFLRHSSNNLGPILPPTNVGSNT[Hyp]-NH2 (disulfide 2-7 (inferred); not fully specified; printed as KCNTATCATQRLADFLRHSSNNLGPILPPTNVGSNT-trans-Hyp-NH2) [PD122] | 0.048 nM
3 | RCNTATCATQRLADFLRHSK([AEEA-γGlu-C18 diacid])NNLGPILPPTNVGSNT[Hyp]-NH2 (disulfide 2-7 (inferred)) [PD117] | 0.014 nM
4 | RCNTATCATQRLADFLRHSSNNLGK([AEEA-γGlu-C18 diacid])ILPPTNVGSNT[Hyp]-NH2 (disulfide 2-7 (inferred)) [PD121] | 0.018 nM
5 | RCNTATCATQRLADFLRHK([AEEA-γGlu-C20 diacid])SNNLGPILPPTNVGSNT[Hyp]-NH2 (disulfide 2-7 (inferred)) [PD118] | 0.032 nM
6 | RCNTATCATQRLADFLRHSSNNK([AEEA-γGlu-C18 diacid])GPILPPTNVGSNT[Hyp]-NH2 (disulfide 2-7 (inferred)) [PD111] | 0.008 nM
7 | {C20 diacid-γGlu}-KCNTATCATQRLANFLVHSSNNFGPILPPTNVGSNTY-NH2 (ends and bridges not checked) [PD156] | 0.029 nM
8 | {C18 diacid-γGlu-AEEA-AEEA}-KCNTATCATQRLADFLRHSSNNLGPILPPTNVGSNT[Hyp]-NH2 (disulfide 2-7 (inferred)) [PD126] | 0.028 nM
9 | {C20 diacid-γGlu}-KCNTATCATQRLADFLRHSSNNLHPILPPTNVGSNT[Hyp]-NH2 (disulfide 2-7 (inferred)) [PD159] | 0.037 nM
10 | RCNTATCATQRLADFLRHSSNNLGK([γGlu-C18 diacid])ILPPTNVGSNT[Hyp]-NH2 (disulfide 2-7 (inferred)) [PD104] | 0.011 nM
11 | RCNTATCATQRLADFLRHSSNNK([AEEA-γGlu-C20 diacid])GPILPPTNVGSNT[Hyp]-NH2 (disulfide 2-7 (inferred)) [PD110] | 0.039 nM
12 | RCNTATCATQRLADFLRHSSNNLGK([AEEA-γGlu-C20 diacid])ILPPTNVGSNT[Hyp]-NH2 (disulfide 2-7 (inferred)) [PD120] | 0.023 nM
13 | RCNTATCATQRLAEFLRHSSNNLK([γGlu-C20 diacid])PILPPTNVGSNTY-NH2 (disulfide 2-7 (inferred)) [PD017] | 0.772 nM
14 | {C18 diacid-γGlu}-KCNTATCATQRLADFLRHSSNNLGPILPPTNVGSNT[Hyp]-NH2 (disulfide 2-7 (inferred); not fully specified; printed as KCNTATCATQRLADFLRHSSNNLGPILPPTNVGSNT-trans-Hyp-NH2) [PD124] | 0.008 nM
15 | RCNTATCATQRLADFLRHSSK([AEEA-γGlu-C20 diacid])NLGPILPPTNVGSNT[Hyp]-NH2 (disulfide 2-7 (inferred)) [PD114] | 0.029 nM

Results, then the binder that gave them:

Row | EC50, CRE-luciferase assay | Binder
16 | 0.028 nM | RCNTATCATQRLADFLRHSSNNLK([AEEA-γGlu-C18 diacid])PILPPTNVGSNT[Hyp]-NH2 (disulfide 2-7 (inferred)) [PD108]
17 | 0.03 nM | RCNTATCATQRLADFLRHSSNK([AEEA-γGlu-C20 diacid])LGPILPPTNVGSNT[Hyp]-NH2 (disulfide 2-7 (inferred)) [PD112]
18 | 0.01 nM | RCNTATCATQRLADFLRHSSNNLK([AEEA-AEEA-γGlu-C18 diacid])PILPPTNVGSNT[Hyp]-NH2 (disulfide 2-7 (inferred)) [PD109]
19 | 0.033 nM | RCNTATCATQRLADFLRHSSNNLGK([AEEA-AEEA-γGlu-C18 diacid])ILPPTNVGSNT[Hyp]-NH2 (disulfide 2-7 (inferred)) [PD105]
20 | 0.033 nM | RCNTATCATQRLADFLRHSSNNLGK([AEEA-AEEA-γGlu-C20 diacid])ILPPTNVGSNT[Hyp]-NH2 (disulfide 2-7 (inferred)) [PD103]
21 | 0.011 nM | RCNTATCATQRLADFLRHSSK([AEEA-γGlu-C18 diacid])NLGPILPPTNVGSNT[Hyp]-NH2 (disulfide 2-7 (inferred)) [PD115]
22 | 0.022 nM | {C20 diacid-γGlu}-KCNTATCATQRLADFLRHSSNNLRPILPPTNVGSNT[Hyp]-NH2 (disulfide 2-7 (inferred)) [PD158]
23 | 0.067 nM | RCNTATCATQRLAEFLRHSSNNLK([γGlu-C20 diacid])PILPPTNVGSNTP-NH2 (disulfide 2-7 (inferred)) [PD009]
24 | 0.026 nM | RCNTATCATQRLADFLRHSSNNLK([AEEA-γGlu-C20 diacid])PILPPTNVGSNT[Hyp]-NH2 (disulfide 2-7 (inferred)) [PD106]
25 | 0.068 nM | {C20 diacid-γGlu-AEEA-AEEA}-KCNTATCATQRLADFLRHSSNNLGPILPPTNVGSNT[Hyp]-NH2 (disulfide 2-7 (inferred); not fully specified; printed as KCNTATCATQRLADFLRHSSNNLGPILPPTNVGSNT-trans-Hyp-NH2) [PD123]
26 | 0.027 nM | RCNTATCATQRLADFLRHSSNNLK([γGlu-C18 diacid])PILPPTNVGSNT[Hyp]-NH2 (disulfide 2-7 (inferred)) [PD107]
27 | 0.01 nM | {C18 diacid-γGlu-AEEA}-KCNTATCATQRLADFLRHSSNNLGPILPPTNVGSNT[Hyp]-NH2 (disulfide 2-7 (inferred)) [PD125]
28 | 0.024 nM | RCNTATCATQRLADFLRHK([AEEA-γGlu-C18 diacid])SNNLGPILPPTNVGSNT[Hyp]-NH2 (disulfide 2-7 (inferred)) [PD119]
29 | 0.033 nM | RCNTATCATQRLADFLRHSK([AEEA-γGlu-C20 diacid])NNLGPILPPTNVGSNT[Hyp]-NH2 (disulfide 2-7 (inferred)) [PD116]

From patent publication US20260115256A1 (HANGZHOU SCIWIND BIOSCIENCES, published 2026)
